This is an account of results in paper PMC3066550.

What all share (assay): co-IP
The target of assay [1] is LANADBD K871A (Kaposi's sarcoma-associated herpesvirus (KSHV; human herpesvirus 8)).
For assay [2], the target named is LANADBD KDT950AAA (Kaposi's sarcoma-associated herpesvirus (KSHV; human herpesvirus 8)).
In assay [3] the target is LANADBD YR879AA (Kaposi's sarcoma-associated herpesvirus (KSHV; human herpesvirus 8)).
In assay [4] the target is LANADBD SKK953AAA (Kaposi's sarcoma-associated herpesvirus (KSHV; human herpesvirus 8)).
Assay [5] concerns the target LANADBD R873A (Kaposi's sarcoma-associated herpesvirus (KSHV; human herpesvirus 8)).
Assay [6] deals with LANADBD HIF876AAA (Kaposi's sarcoma-associated herpesvirus (KSHV; human herpesvirus 8)).
The target in assay [7] is LANADBD LSQ912AAA (Kaposi's sarcoma-associated herpesvirus (KSHV; human herpesvirus 8)).
Assay [8] concerns the target LANADBD YGL907AAA (Kaposi's sarcoma-associated herpesvirus (KSHV; human herpesvirus 8)).
The target in assay [9] is LANADBD WE963AA (Kaposi's sarcoma-associated herpesvirus (KSHV; human herpesvirus 8)).

Turning to “wild-type KSHV LANA DNA-binding domain (LANADBD, aa 775-1003) (domain or fragment)”, the dimerization activity by IP, percent of wt in [1] is 74 % of wt; in [2], 74 % of wt; in assay [3], 73 % of wt; in [4], 64 % of wt; in [5], 135 % of wt; in assay [6] it was 127 % of wt. The dimerization activity by IP, percent of wt in assay [7] is 248 % of wt; in [8] it was 73 % of wt; in [9], 29 % of wt.
